Test: yeast display, Sf9 membrane polyspecificity reagent, FACS + sequencing; frameworks hold sequencing errors
In short: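 Genes from sorted yeast were amplified by colony PCR, read by MiSeq 2 × 250 sequencing and filtered on CDR length. These cells carried a synthetic nanobody library in Saccharomyces cerevisiae BJ5465 and were sorted by FACS into low and high (top ~1%) gates on anti-HA and streptavidin fluorescence. Polyreactivity is labelled according to the gate of origin.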

| Sequence | polyreactivity (PSR sort gate) |
| --- | --- |
| QVQLVESGGGLDQAGGSLRLSCAASARTFTYYAMGWYRQAPGKERELVAAIRWTGDSTYYADSVKGRFTISRDYAKNTVYLQMNSLKPEDTAVYYCAKQARWQYDGGIRWYYYWGQGTQVTVSS | high polyreactivity |
| QVQLVESGGGLDQAGGSLRLSCAASGFAFSYYAMGWYRQAPGKEREFVASIDWSGGSTYYADSVKGRFTISRDNAKNTVYLQMNSLKPEDTAVYYCAAELDYFPGYDYWGQGTQVTVSS | low polyreactivity |
| QVQLVESGGGLDQAGGSLRLSCAASGFIFFINDMGWYRQAPGKERELVAAISWSGGSTYYADSVKGRFTISRDNAKNTVYLQMNSLKPEDTAVYYCNTDVPTAQYDYWGQGTQVTVSS | low polyreactivity |
| QVQLVESGGGLDQAGGSLRLSCAASGFIFFRYAMGWYRQAPGKERELVAGNNGSDGSTYYADSVKGRFTISRDNAKNTVYLQMNSLKPEDTAVYYCAAEGGFSPQPYNLYYATPREDYWGQGTQVTVSS | low polyreactivity |
| QVQLVESGGGLDQAGGSLRLSCAASGFIFPIYAMGWNRQAPGKERELVAAISWSGGSTYYADSVKGRFTISRDNAKNTVYLQMNSLKPEDTAVYYCAKRYPYYPYDYWGQGTQVTVSS | high polyreactivity |
| QVQLVESGGGLDQAGGSLRLSCAASGFIFPVYAMGWSRPAPGKERELVAAIRRGGSTNYADSVKGRFTISRDNAKNTVYVQMNSLKPEDTAVYYCAKTIGLKHEDEYWGQGTQVTVSS | low polyreactivity |
| QVQLVESGGGLDQAGGSLRLSCAASGFIFYSNAMGWYRQAPGKERELVAAISRGGGSTYYADSVKGRFTISRDNAKNTVYLQLNSLKPEDTAVYYCAKRRLSPQDDYWGQGTQVTLSS | high polyreactivity |
| QVQLVESGGGLDQAGGSLRLSCAASGFIINRNAMGWYRQAPGKERELVADITGGSTYYADSVKGRFTISRDNAKNTVYLQMNSLKPEDNAVYYCAADVLRITTLLFRGTGFDSWGHGTQVTVSS | low polyreactivity |
| QVQLVESGGGLDQAGGSLRLSCAASGFIYSYAMGWYRQAPGKERELVAAIRRGGPTNYADSVKGRFSISRDNAKTTVYLPMNSRKPEDTAVYYCAADSWFRRNEYDDWGQGTQVTVAS | high polyreactivity |
| QVQLVESGGGLDQAGGSLRLSCAASGFTLDYYTMGRYRQAPGKERELVAAISWIGTSTYYADSVKGRFTISRDNAKNTVYLQMNSLKPEDTAVYYCAAVGASVDDYYWGQGTQVTVSS | high polyreactivity |
| QVQLVESGGGLDQAGGSLRLSCAASGIIFARNAMGWYRQAPGKERELVAAISGSGGRTYYADSVKGRFTISRDNAKNTVYLQMNSLKPEDTAVYYCAAEYTYRAVALDYWGQGTQVTVSS | high polyreactivity |
| QVQLVESGGGLDQAGGSLRLSCAASGIIFLSYAMGRYRQAPGKERELVAAIRSRGDSTYYADSVKGRFTNSRDNAKNTVYLQMNSLKPEDTAVYYCNARQRRYPYGYWGQGTQVTVSS | high polyreactivity |
| QVQLVESGGGLDQAGGSLRLSCAASGIIFVSNAMGWYRQAPGKERELVATITWTGGSTYYADSVKGRFTISRDNAKNTVYLQMNSLKPEDTAVYYCAADLSIRYDHEYGYWGQGTQVTVSS | low polyreactivity |
| QVQLVESGGGLDQAGGSLRLSCAASGITFTRNAMGWYRQAPGKERELVAAITKSGGGTYYADSVKGRFTISRDNAKNTVYLQMNSLKPEDTAVYYCAAYTDKYGDYNYWGQGTLVTVSS | high polyreactivity |
| QVQLVESGGGLDQAGGSLRLSCAASGITFVWNAMGWYRQAPGKERELVATISRGGVRTYYADSVKGRFTISRDNAKNTVYLQMNSLKPEDTAVYYCNKTTLLTVEYDYWGQGTQLTVSS | low polyreactivity |
| QVQLVESGGGLDQAGGSLRLSCAASGLIFGNYANRGYTQAPGKERELVAALSSGGSTHYADSVKGRFTISRDNAKNTVYLQMHSLNPEDTAVYYCAAGYRYAGNGQIANTGGYYWGQGTQVTVSW | low polyreactivity |
| QVQLVESGGGLDQAGGSLRLSCAASGLIFLVNAMGWYRQPPWKERDLVAAIDLDGGITYADSVKGRFTISRDNAKNTVYLQMNSLKPEDTAVYYCAADPSSYGRFTYDYWGQGTQVTVSS | low polyreactivity |
| QVQLVESGGGLDQAGGSLRLSCAASGLIFYAYTMGWYRQAPWKERELVAAINYSGGSTYYADSVKGRFTISRDNAKNTVYLQMNSLKPEDTAVYYCATRTGHWGQGTQVTVSS | low polyreactivity |
| QVQLVESGGGLDQAGGSLRLSCAASGLIFYYYAMGWYRQAPGKERELVAAISSNGGSTYYADSVKGRFTISRDNAKNTVYLQMNSLKPEDTAGYYCAAVGRVDGYRYDYWGQGTQVTVSS | high polyreactivity |
| QVQLVESGGGLDQAGGSLRLSCAASGLTFDANAMGWYRQAPGKERELVAAISSGGSTYADSVKGRFTISRDNAKNTVYLQMNSLKPEDTAVYYCNAVSIDVIQGDYNYWGQGTQVTVSS | low polyreactivity |
| QVQLVESGGGLDQAGGSLRLSCAASGRIFGYYAMGWYRQAPGKERELVAAISRSGGSTNYADSVKGRFTISRDTAKNTVYLQMNSLKPEDTAVYYCAVRYPYYSPFGGYDYWGQGTQVTVSS | high polyreactivity |
| QVQLVESGGGLDQAGGSLRLSCAASGRIFIDNTMAWYRQAPGKERELVAAISWSGGSTYYADSVKGRFTISRDNAKNTVYLQMNSLKPEDTAVYYCAARSLRSNGRTWAVTYDYWGQGTQVTVSS | low polyreactivity |

| Sequence | polyreactivity (PSR sort gate) |
| --- | --- |
| QVQLVESGGGLDQAGGSLRLSCAASGRIFRCYAMGWYREAPGKERELVAAISWSSGNTYYADSVKGRFTISRDNAKNTVYLQMNSLKAEDTAVYYCAADFKPTSRSNKYYYWGQGTQVTVSS | high polyreactivity |
| QVQLVESGGGLDQAGGSLRLSCAASGRIFTVYGMGWYRQAPGKERELVAAISWSGGGTYYADSVKGRFTISRDNAKNTVYLQMNSLKPEDTAVYYCNADRQYTWSLVFFSSDYDYWGQGTQVTVSS | low polyreactivity |
| QVQLVESGGGLDQAGGSLRLSCAASGRIFTYYTMGWYRQAPGKERELVATIRWSGGRTYYADSVKGRFTISRDNAKNTVYLQMNSLKPEDTAVYYCAANTYWRHYTPYTYGYWGQGTQVTVSS | high polyreactivity |
| QVQLVESGGGLDQAGGSLRLSCAASGRISVFYAMGWYRQAPGKERELVAAISRGSSTYYADSVKGLFTISRDNAKNTVYLQMNSLKPEETAVYYCNRARYYLYDGGYWGQGTQVTVSS | high polyreactivity |
| QVQLVESGGGLDQAGGSLRLSCAASGRTFGVYAMGWYRQAPGKERELVAAITGRGGSTYYADSVKGRFTISRDNAKNTVYLQMNSLKPEDTAVYYCNAELYEYQSWDDYWGQGTQVTVSS | low polyreactivity |
| QVQLVESGGGLDQAGGSLRLSCAASGRTFKPYAMGWYRQAPGKERELVARISGSGGSTYYADSVKGRFSISRDNAKNTVYLQMNSLKPEDTAVYYCATTPYYWFDYWGQGTQVTVSS | low polyreactivity |
| QVQLVESGGGLDQAGGSLRLSCAASGRTFPYNTMGWYRQAPGKERELVASITYTDGSTSYADSVKGRFTISRDNAKNTVYLQMNSLKPEDTSVYYCAADYYAHQDYRFDYWGQGTQVTVSS | low polyreactivity |
| QVQLVESGGGLDQAGGSLRLSCAASGRTFTRYALCWYRQAPGNVRELVATMTRGARTYYADSVKGRFTISRDNAKNTVYLQMNSLKPVDTAVYYCNAVYSFLSPDQMGYWGQGTQVTVSS | high polyreactivity |
| QVQLVESGGGLDQAGGSLRLSCAASGRTFYSYAMGWYRQAPGKERELVAAITSGGRTKYADSVKGRFTISRDNAKNTVYLQMNSLKAEDTAVYYCAADRVSYYTTPYDYWGQGTQVTVSS | high polyreactivity |
| QVQLVESGGGLDQAGGSLRLSCAASGRTLSRYAMGWYRQAPGKERELVASMSWSGGRTYYADSVKGRFTISRDNAKNTVYLEMNSLKPEDTAVYYCAAVYVTAPFDYWGQGTQVTVSS | low polyreactivity |
| QVQLVESGGGLDQAGGSLRLSCAASGSIFAGYAMGWYRQAHGKERELVAAINWTGDSTYYADSVKGRFTISRDNAKNTVYLQMNRLKPEDTAVYYCAAIRRQKGLWDYYYWGQGTQVTVSS | low polyreactivity |
| QVQLVESGGGLDQAGGSLRLSCAASGSIFDYYTMGWYRQAPGKERELVASITQSGGSTYYADSVKGRFTISRDNAKNTVYLQMTSLKPEDTAVYYCAADGRYVRIRGDYWGQGTQVTVSS | low polyreactivity |
| QVQLVESGGGLDQAGGSLRLSCAASGSIFFGNAMGWSRQPPGKERELVAAITTSGGSTYYADSVKGRFTISRDNAKNTLYLQMNSLKPEDTAVYYCYARIASWLGSRYEYWGQGTQVTVSS | low polyreactivity |
| QVQLVESGGGLDQAGGSLRLSCAASGSIFGYAMGWYRQAPGKERELVAAIRWGGGSTYYADSVKGRFTISRDNAKKTVYLQMNSLKPEDTAVYYCAARYYRPGVLANYYWGQGTQVTVSS | high polyreactivity |
| QVQLVESGGGLDQAGGSLRLSCAASGSIFPFYAMGWYRQAPGKERELVAAISDRGGSTYYADSVKGRFTISRDNAKNSVYLQMNSLKPEATAVYYCAKGGEVSQGYTDEYDYWGQGTQVTVSS | low polyreactivity |
| QVQLVESGGGLDQAGGSLRLSCAASGSIISGYAMGWYRQAPGKERELVAAISSSGGRTYYADSVKGRFTISRDNAKNTVYLQMNSLKPEDTAVYYCNARQFSRYDYNYWGQGTQETVSS | high polyreactivity |
| QVQLVESGGGLDQAGGSLRLSCAASGSIYNRYAMGWYRQAPGKERELVADISSGGGTSYADSVKGRFTISRDNAKNTVYLQMNSLKPEDTAVYYCAAELYYWTYVRFDYWGQGTQVTVSS | high polyreactivity |
| QVQLVESGGGLDQAGGSLRLSCAASGSIYYTAMGWYRQAPGKERELVASISTGDSTDYADSVKGRFTISRDNAKNTVYLQMNSLKPEDTAVYYCAADTRLGYWDDYWGQGTQVTVSS | low polyreactivity |
| QVQLVESGGGLDQAGGSLRLSCAASGSNFSGWYTMGWYRQAPGKERELVASISISTTDTYYADSVKGRFTISRDNAKKTVYVQMNSLKPEDTAVYYCAAYGWDHVIVEYDYWGQGTQVTVSS | low polyreactivity |
| QVQLVESGGGLDQAGGSLRLSCAASGSTFDTYAMGGYRQAPGKERELVAAISVSGTSTSYADSVKGRFTISRDNAKNTVYLQMNILNPEDTAVYYCIATDFSRNPGYARPEYDYWGQGTQVTVSS | low polyreactivity |
| QVQLVESGGGLDQAGGSLRLSCAASGSTFGGNAMGWYRQAPGKERELVAAISGGDRTNYADSVKGRFTISRDNAKNSVYLQMNSLKPEDTAVYYCAADAGYWDLRSGIYKEDYWGQGTQVTVSS | low polyreactivity |
